Source: US20210371508A1

Key:
V5-hNMES1 (human) [1] = target: V5-hNMES1 (human) (UniProt Q9C002); assay: IP with IgG control, lysate of 231 cells with V5-NMES1 OE pre-incubated with isotype ctrl; western blot for NMES1; a band is visible in this control lane
V5-hNMES1 (human) [2] = target: V5-hNMES1 (human) (UniProt Q9C002); assay: IP with IgG control, lysate of 231 cells with V5-NMES1 OE pre-incubated with NM-1; western blot for NMES1; hardly any band
[3] = target: transferrin receptor 1 (TFRC) (human) (UniProt P02786); assay: IP with IgG control, lysate of 231 cells with V5-NMES1 OE pre-incubated with NM-1; western blot for TFRC
Sequence of transferrin receptor 1 (TFRC) (human) (P02786 whole entry): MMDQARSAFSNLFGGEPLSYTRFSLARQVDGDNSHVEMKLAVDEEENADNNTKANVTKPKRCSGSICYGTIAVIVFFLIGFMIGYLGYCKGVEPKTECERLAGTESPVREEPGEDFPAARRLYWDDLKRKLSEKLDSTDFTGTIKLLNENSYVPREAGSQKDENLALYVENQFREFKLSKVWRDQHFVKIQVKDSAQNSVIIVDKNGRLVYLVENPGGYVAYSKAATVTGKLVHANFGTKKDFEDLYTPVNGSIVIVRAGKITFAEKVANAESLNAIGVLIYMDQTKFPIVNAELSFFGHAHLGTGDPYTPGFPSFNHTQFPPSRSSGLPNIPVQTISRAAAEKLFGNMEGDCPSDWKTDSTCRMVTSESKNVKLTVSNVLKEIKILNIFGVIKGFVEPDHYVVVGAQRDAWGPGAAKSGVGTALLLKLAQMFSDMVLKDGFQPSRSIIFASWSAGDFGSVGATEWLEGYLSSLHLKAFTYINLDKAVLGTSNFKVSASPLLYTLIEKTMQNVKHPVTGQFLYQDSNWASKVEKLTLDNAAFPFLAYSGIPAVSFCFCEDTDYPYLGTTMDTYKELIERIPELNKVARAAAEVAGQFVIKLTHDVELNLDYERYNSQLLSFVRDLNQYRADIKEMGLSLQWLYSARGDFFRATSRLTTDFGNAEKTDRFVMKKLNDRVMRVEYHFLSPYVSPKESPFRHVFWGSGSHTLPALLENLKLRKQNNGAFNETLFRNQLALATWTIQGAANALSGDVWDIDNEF

[4] = target: transferrin receptor 1 (TFRC) (human) (UniProt P02786); assay: IP with IgG control, lysate of 231 cells with V5-NMES1 OE pre-incubated with isotype ctrl; western blot for TFRC

Sequence of V5-hNMES1 (human) (Q9C002 whole entry): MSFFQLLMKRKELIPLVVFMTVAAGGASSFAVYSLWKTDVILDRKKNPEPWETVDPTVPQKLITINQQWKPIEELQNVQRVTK

isotype IgG control (antibody)
number under the NMES1 band (band intensity, not named on the sheet) (V5-hNMES1 (human) [1]): 38.5
number under the NMES1 band (band intensity, not named on the sheet) (V5-hNMES1 (human) [2]): 15.8
number under the TFRC band (band intensity, not named on the sheet) [3]: 27.4
number under the TFRC band (band intensity, not named on the sheet) [4]: 24
